# Experimental data reported in patent publication US20170052184A1.
# Where two headings read alike, the source gives them in different places.
# What was measured:
# [1] = molecular target: C113T109N biotin labeled HCV core peptide (hepatitis C virus)
# [2] = molecular target: Mut6T110S biotin labeled HCV core peptide (hepatitis C virus)
# [3] = molecular target: Mut1T110N biotin labeled HCV core peptide (hepatitis C virus)
# [4] = molecular target: 92-133 biotin labeled HCV core peptide (hepatitis C virus) (UniProt P26664)
# [5] = molecular target: C113T109N biotin labeled HCV core peptide (hepatitis C virus); test: EIA; Ab 500 ng/mL captured on anti-mouse Fc; bt-peptide 500 ng/mL
# [6] = molecular target: 92-133 biotin labeled HCV core peptide (hepatitis C virus) (UniProt P26664); test: as above
# [7] = molecular target: C113T109N biotin labeled HCV core peptide (hepatitis C virus); test: EIA; Ab 62.5 ng/mL captured on anti-mouse Fc; bt-peptide 500 ng/mL
# [8] = molecular target: Mut6T110S biotin labeled HCV core peptide (hepatitis C virus); test: as above
# [9] = molecular target: Mut1T110N biotin labeled HCV core peptide (hepatitis C virus); test: as above
# [10] = molecular target: 92-133 biotin labeled HCV core peptide (hepatitis C virus) (UniProt P26664); test: as above
# [11] = molecular target: C113T109N biotin labeled HCV core peptide (hepatitis C virus); test: EIA; Ab 1.953 ng/mL captured on anti-mouse Fc; bt-peptide 500 ng/mL
# [12] = molecular target: Mut6T110S biotin labeled HCV core peptide (hepatitis C virus); test: as above
# [13] = molecular target: Mut1T110N biotin labeled HCV core peptide (hepatitis C virus); test: as above
# [14] = molecular target: 92-133 biotin labeled HCV core peptide (hepatitis C virus) (UniProt P26664); test: as above
# [15] = molecular target: C113T109N biotin labeled HCV core peptide (hepatitis C virus); test: EIA; Ab 31.25 ng/mL captured on anti-mouse Fc; bt-peptide 500 ng/mL
# [16] = molecular target: Mut6T110S biotin labeled HCV core peptide (hepatitis C virus); test: as above
# [17] = molecular target: Mut1T110N biotin labeled HCV core peptide (hepatitis C virus); test: as above
# [18] = molecular target: 92-133 biotin labeled HCV core peptide (hepatitis C virus) (UniProt P26664); test: as above
# [19] = molecular target: C113T109N biotin labeled HCV core peptide (hepatitis C virus); test: EIA; Ab 250 ng/mL captured on anti-mouse Fc; bt-peptide 500 ng/mL
# [20] = molecular target: Mut6T110S biotin labeled HCV core peptide (hepatitis C virus); test: as above
# [21] = molecular target: Mut1T110N biotin labeled HCV core peptide (hepatitis C virus); test: as above
# [22] = molecular target: 92-133 biotin labeled HCV core peptide (hepatitis C virus) (UniProt P26664); test: as above
# [23] = molecular target: C113T109N biotin labeled HCV core peptide (hepatitis C virus); test: EIA; Ab 7.813 ng/mL captured on anti-mouse Fc; bt-peptide 500 ng/mL
# [24] = molecular target: Mut6T110S biotin labeled HCV core peptide (hepatitis C virus); test: as above
# [25] = molecular target: Mut1T110N biotin labeled HCV core peptide (hepatitis C virus); test: as above
# [26] = molecular target: 92-133 biotin labeled HCV core peptide (hepatitis C virus) (UniProt P26664); test: as above
# [27] = molecular target: C113T109N biotin labeled HCV core peptide (hepatitis C virus); test: EIA; Ab 3.906 ng/mL captured on anti-mouse Fc; bt-peptide 500 ng/mL
# [28] = molecular target: Mut6T110S biotin labeled HCV core peptide (hepatitis C virus); test: as above
# [29] = molecular target: Mut1T110N biotin labeled HCV core peptide (hepatitis C virus); test: as above
# [30] = molecular target: 92-133 biotin labeled HCV core peptide (hepatitis C virus) (UniProt P26664); test: as above
# [31] = molecular target: C113T109N biotin labeled HCV core peptide (hepatitis C virus); test: EIA; Ab 0.977 ng/mL captured on anti-mouse Fc; bt-peptide 500 ng/mL
# [32] = molecular target: Mut6T110S biotin labeled HCV core peptide (hepatitis C virus); test: as above
# [33] = molecular target: Mut1T110N biotin labeled HCV core peptide (hepatitis C virus); test: as above
# [34] = molecular target: 92-133 biotin labeled HCV core peptide (hepatitis C virus) (UniProt P26664); test: as above
substance,measurement,setting,value
HCV C11-3 monoclonal antibody,signal at 492 nm,[1],0.116 OD 492 nm
same,signal at 492 nm,[2],0.807 OD 492 nm
same,signal at 492 nm,[3],0.11 OD 492 nm
same,signal at 492 nm,[4],1.01 OD 492 nm
same,signal at 492 nm,[5],0.0882 OD 492 nm
same,signal at 492 nm,[6],1.95 OD 492 nm
same,signal at 492 nm,[7],0.202 OD 492 nm
same,signal at 492 nm,[8],2.11 OD 492 nm
same,signal at 492 nm,[9],0.155 OD 492 nm
same,signal at 492 nm,[10],1.92 OD 492 nm
same,signal at 492 nm,[11],0.114 OD 492 nm
same,signal at 492 nm,[12],0.0964 OD 492 nm
same,signal at 492 nm,[13],0.0854 OD 492 nm
same,signal at 492 nm,[14],0.134 OD 492 nm
same,signal at 492 nm,[15],0.16 OD 492 nm
same,signal at 492 nm,[16],1.54 OD 492 nm
same,signal at 492 nm,[17],0.107 OD 492 nm
same,signal at 492 nm,[18],1.55 OD 492 nm
same,signal at 492 nm,[19],0.0963 OD 492 nm
same,signal at 492 nm,[20],1.83 OD 492 nm
same,signal at 492 nm,[21],0.0857 OD 492 nm
same,signal at 492 nm,[22],1.68 OD 492 nm
same,signal at 492 nm,[23],0.119 OD 492 nm
same,signal at 492 nm,[24],0.344 OD 492 nm
same,signal at 492 nm,[25],0.0966 OD 492 nm
same,signal at 492 nm,[26],0.562 OD 492 nm
same,signal at 492 nm,[27],0.0833 OD 492 nm
same,signal at 492 nm,[28],0.227 OD 492 nm
same,signal at 492 nm,[29],0.079 OD 492 nm
same,signal at 492 nm,[30],0.183 OD 492 nm
same,signal at 492 nm,[31],0.104 OD 492 nm
same,signal at 492 nm,[32],0.101 OD 492 nm
same,signal at 492 nm,[33],0.0755 OD 492 nm
same,signal at 492 nm,[34],0.116 OD 492 nm
